Experimental data taken from PMC10572367, “The Generation of a Nanobody-Based ELISA for Human Microsomal Epoxide Hydrolase” (International Journal of Molecular Sciences, 2023).

Assays:
[1] = target: T1, recombinant human microsomal epoxide hydrolase (Homo sapiens, UniProt P07099, final four amino acid residues of mEH (LERQ) were mutated to the Factor Xa …); assay: ELISA; direct ELISA testing the titer of the candidate nanobodies; format not described; conditions: both partners purified
T1 construct: human microsomal epoxide hydrolase (mEH), Uniprot P07099; Extracted from microsomes with beta-DDM; also called mEH; human mEH; source: Tni (Trichoplusia ni) insect cells, baculovirus, purified (Ni-NTA, size exclusion chromatography)
T1 sequence (P07099 other isoform, or with tags, fused parts or gaps with the stated changes): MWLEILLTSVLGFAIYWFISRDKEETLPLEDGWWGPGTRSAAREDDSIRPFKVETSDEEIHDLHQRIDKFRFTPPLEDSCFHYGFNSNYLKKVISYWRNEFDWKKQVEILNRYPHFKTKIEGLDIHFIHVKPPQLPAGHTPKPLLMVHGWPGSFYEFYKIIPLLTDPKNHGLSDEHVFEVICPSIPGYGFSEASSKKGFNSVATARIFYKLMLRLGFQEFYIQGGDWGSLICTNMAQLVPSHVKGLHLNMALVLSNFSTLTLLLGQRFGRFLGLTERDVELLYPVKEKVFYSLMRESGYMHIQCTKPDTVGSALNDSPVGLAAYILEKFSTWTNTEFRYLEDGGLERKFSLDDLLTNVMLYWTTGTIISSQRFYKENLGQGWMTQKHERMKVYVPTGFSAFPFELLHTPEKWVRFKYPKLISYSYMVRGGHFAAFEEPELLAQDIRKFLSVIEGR

[2] = target: T1, recombinant human microsomal epoxide …; assay: far-Western, overlay or dot blot; Western blot: recombinant human mEH denatured, run on Mini-protean TGX gels, transferred to PVDF; nanobody as detection antibody (HRP-labelled anti-HA as tracer, or MQM8-HRP); conditions: both partners purified
human EH-4 (human) = target: T2, human EH-4 (human) (UniProt Q8IUS5); assay: ELISA; cross-reactivity in the format A sandwich (mAb capture, MQ30 detection): epoxide hydrolases spiked at 1000 ng mL^-1 in PBS, read against the human mEH standard curve; a signal needs capture by the mAb as well as MQ30
T2 sequence: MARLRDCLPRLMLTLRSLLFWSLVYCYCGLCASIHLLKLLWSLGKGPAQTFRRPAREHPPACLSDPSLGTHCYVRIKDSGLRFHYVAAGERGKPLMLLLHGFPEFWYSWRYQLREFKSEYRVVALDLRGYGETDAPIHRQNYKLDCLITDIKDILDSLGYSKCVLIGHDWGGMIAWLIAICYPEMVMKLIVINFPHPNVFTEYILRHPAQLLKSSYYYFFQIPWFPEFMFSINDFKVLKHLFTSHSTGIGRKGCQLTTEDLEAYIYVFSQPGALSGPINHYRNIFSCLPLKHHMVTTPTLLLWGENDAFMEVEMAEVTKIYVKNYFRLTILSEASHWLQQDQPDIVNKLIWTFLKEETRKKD

human EH-3 (human) = target: T3, human EH-3 (human) (UniProt Q9H6B9); assay: as above
T3 sequence: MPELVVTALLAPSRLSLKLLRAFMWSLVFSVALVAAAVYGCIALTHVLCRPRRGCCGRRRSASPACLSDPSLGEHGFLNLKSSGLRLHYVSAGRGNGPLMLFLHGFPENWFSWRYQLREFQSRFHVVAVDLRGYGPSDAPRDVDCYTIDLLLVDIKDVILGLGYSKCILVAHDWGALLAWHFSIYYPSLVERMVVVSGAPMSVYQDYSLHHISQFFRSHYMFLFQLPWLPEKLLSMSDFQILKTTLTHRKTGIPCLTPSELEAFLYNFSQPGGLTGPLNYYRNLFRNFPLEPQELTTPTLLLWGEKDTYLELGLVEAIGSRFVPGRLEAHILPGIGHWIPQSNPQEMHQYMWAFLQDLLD

rat mEH (rat) = target: T4, rat mEH (rat) (UniProt P07687); assay: as above
T4 sequence: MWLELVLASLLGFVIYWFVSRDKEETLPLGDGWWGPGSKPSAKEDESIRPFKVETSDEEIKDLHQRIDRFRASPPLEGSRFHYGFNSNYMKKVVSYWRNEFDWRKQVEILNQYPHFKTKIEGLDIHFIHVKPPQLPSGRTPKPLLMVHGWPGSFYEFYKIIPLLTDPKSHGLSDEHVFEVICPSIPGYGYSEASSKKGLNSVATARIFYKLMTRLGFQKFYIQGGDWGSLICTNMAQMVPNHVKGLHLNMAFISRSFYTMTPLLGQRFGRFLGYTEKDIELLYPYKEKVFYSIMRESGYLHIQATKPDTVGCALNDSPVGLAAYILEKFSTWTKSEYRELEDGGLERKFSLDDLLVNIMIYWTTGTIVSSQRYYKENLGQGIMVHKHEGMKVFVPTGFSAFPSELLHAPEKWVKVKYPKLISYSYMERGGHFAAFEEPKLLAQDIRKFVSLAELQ

human sEH (human) = target: T5, human sEH (human) (UniProt P34913); assay: as above
T5 sequence: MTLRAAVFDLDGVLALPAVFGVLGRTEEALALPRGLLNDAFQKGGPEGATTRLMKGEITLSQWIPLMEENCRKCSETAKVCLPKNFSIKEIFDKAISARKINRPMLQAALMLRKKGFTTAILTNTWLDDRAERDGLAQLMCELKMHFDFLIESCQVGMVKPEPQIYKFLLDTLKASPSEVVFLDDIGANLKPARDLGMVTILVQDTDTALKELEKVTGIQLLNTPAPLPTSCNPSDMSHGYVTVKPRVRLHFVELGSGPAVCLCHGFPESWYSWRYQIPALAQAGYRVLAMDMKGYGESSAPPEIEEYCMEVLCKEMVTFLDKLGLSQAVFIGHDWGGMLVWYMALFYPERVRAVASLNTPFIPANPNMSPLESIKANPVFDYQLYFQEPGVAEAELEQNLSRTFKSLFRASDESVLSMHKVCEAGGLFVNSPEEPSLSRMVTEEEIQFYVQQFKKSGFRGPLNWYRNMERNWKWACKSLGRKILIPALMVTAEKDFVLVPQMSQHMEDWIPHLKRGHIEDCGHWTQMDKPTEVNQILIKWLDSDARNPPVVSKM

[3] = target: T6, human mEH in human tissue whole extracts (Homo sapiens, endogenous, UniProt P07099); assay: ELISA; sandwich ELISAs of formats A, B and C (mAb capture, native or biotinylated MQ30 detection) on human whole tissue extracts diluted 10^3, 10^4 and 10^5-fold; conditions: one partner purified
T6 construct: human microsomal epoxide hydrolase, endogenous in human tissue extracts (adrenal, esophagus, liver, pancreas, ovary, heart, hippocampus); also called bioactive mEH in the crude extracts; source: endogenous, whole tissue extracts of human commercial tissue samples (BioChain Institute)
T6 sequence (P07099 whole entry): as the sequence (P07099 other isoform, or with tags, fused parts or gaps with the stated changes) above, with I452L, G454R, R455Q counted along it

[4] = target: T1, recombinant human microsomal epoxide …; assay: ELISA; phage ELISA of randomly picked single phage clones against recombinant human mEH; conditions: one partner purified

B1: nanobody MQM8 (VHH)
VHH: QLQLVESGGGFVPPGGSLRLSCAASGFIFRFVGMGRYRQAPGKQRELVASITGNDYRNYADSVKGRFTISRDNYKNTVDLQMNSLKPEDTAVYYCNRVPLDFGSWGQGTQVTVSS
notes: Selected from a phage library of an immunised llama; In the phage ELISA the clone stood on phage, not as the soluble purified VHH; also called VHH MQM8; source: E. coli TOP10F', purified (B-PER extraction, Ni-NTA); in the phage ELISA as a phage clone
binding result [1]: binds

B2: MQM8-HRP (VHH)
VHH: B1 VHH
notes: as the VHH of m5 (MQM8); Named only as 'MQM8-HRP as a signal tracer'; also called HRP-labelled VHH MQM8
binding result [2]: binds

B3: nanobody MQ17 (VHH)
VHH: QLQLVESGGGLVQPGGSLTLSCAASGSIFTIDALGWFRQAPGKEREFVAALPWRDGVPYYAASNKGRFSVSKDSAKNTVFKNTVFLQVNNLEPEDTAVYSCAARPWYATSTYSDSDSYGYWGQGTQVTVSS
notes: Selected from a phage library of an immunised llama; In the phage ELISA the clone stood on phage, not as the soluble purified VHH; also called VHH MQ17; source: E. coli TOP10F', purified (B-PER extraction, Ni-NTA); in the phage ELISA as a phage clone
binding result [1]: binds

B4: nanobody MQ30 (VHH)
VHH: QVQLVESGGGVVQPGGSLRLSCVVSGSRFSLNFMGWFRQAPGKEREFVAALIWRGDVAHYAASNKGRFTVSKESAKNTVYLQLNSLEPEDTAVYSCAAQPWYSRDTYSDSDSYKYWGQGTQVTVSS
notes: Selected from a phage library of an immunised llama; In the phage ELISA the clone stood on phage, not as the soluble purified VHH; also called VHH MQ30; native VHH MQ30; source: E. coli TOP10F', purified (B-PER extraction, Ni-NTA); in the phage ELISA as a phage clone
cross-reactivity (human EH-4 (human)): < 0.01% | cross-reactivity (human EH-3 (human)): < 0.01% | cross-reactivity (rat mEH (rat)): 0.11% | measured concentration at 1000 ng mL^-1 spiked (rat mEH (rat)): 1.05 ng/mL | cross-reactivity (human sEH (human)): < 0.01% | binding result [3]: binds

B5: biotinylated VHH MQ30 (VHH)
VHH: B4 VHH
notes: as the VHH of m4 (MQ30); also called biotinylated MQ30; source: E. coli TOP10F', purified (Ni-NTA), then biotinylated
binding result [3]: binds

B6: nanobody MQ4 (VHH)
VHH: QVQLVESGGGLAQPGGSLRLSCDASGSPYIINDMGWYRQAPGKQRELVASITRRGITNVADSVKGRFTISRDNAKMTVYLQMNSLKSEDTALYNCHAQPAVTPRMDYWGQGTQVTVSS
notes: Selected from a phage library of an immunised llama; In the phage ELISA the clone stood on phage, not as the soluble purified VHH; also called VHH MQ4; source: E. coli TOP10F', purified (B-PER extraction, Ni-NTA); in the phage ELISA as a phage clone
binding result [4]: binds
